Assay results as given in patent US20230020362A1, “INFECTIOUS DISEASE VACCINES” (priority 2015, published 2023).

Columns and labels:
Test in all cases: ProImmune REVEAL binding assay
B*27:05 = B*27:05 (Homo sapiens, UniProt P01889, D138H/D201E/E176V/E204Q/G107R/H137Y/K202T/N104T/N87E/Q56L/Q94K/R106L/R155S/R180L/S101D/S121N/S48T/Y140D/Y33H/Y91C)
A*24:02 = A*24:02 (Homo sapiens, UniProt P04439, D101N/D140Y/D185E/E176V/E190D/F33S/G103R/G107R/I119L/I121M/I306V/K335N/L105A/L180Q/L300P/N151K/N90K/Q86E/Q94H/R106L/R138H/R89G/T104I/T345S/V100E/W191G/Y123F)
A*02:01 = A*02:01 (Homo sapiens, UniProt P04439, D140Y/D185E/D98H/E176V/E277Q/G131W/G231S/I119V/I121R/I166T/I218V/L300P/L318F/N151K/N90K/P208A/P217A/Q86G/Q94H/R138H/R169H/T345S)
H-2Kb = target: T1, H-2Kb (Mus musculus, UniProt P01901)
T1 sequence (P01901 22-295 limits assumed): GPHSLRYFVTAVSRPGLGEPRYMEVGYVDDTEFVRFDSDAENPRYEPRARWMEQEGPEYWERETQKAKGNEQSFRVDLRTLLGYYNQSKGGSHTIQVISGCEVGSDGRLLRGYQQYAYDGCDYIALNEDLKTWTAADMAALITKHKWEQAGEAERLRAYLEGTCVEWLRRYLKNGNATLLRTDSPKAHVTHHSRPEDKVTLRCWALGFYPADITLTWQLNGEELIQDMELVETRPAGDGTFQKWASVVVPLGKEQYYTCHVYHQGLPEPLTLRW
T1 sequence (P01887 21-119 partner): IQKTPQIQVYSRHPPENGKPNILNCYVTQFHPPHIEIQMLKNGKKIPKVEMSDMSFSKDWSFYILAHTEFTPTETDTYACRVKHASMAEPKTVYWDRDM

B*07:02 = B*07:02 (Homo sapiens, UniProt P01889)
A*11:01 = A*11:01 (Homo sapiens, UniProt P04439, A114D/D185E/E176A/F33Y/L180Q/S129P/T187R)
A*03:01 = A*03:01 (Homo sapiens, UniProt P04439)
A*01:01 = A*01:01 (Homo sapiens, UniProt P04439, A114D/A174V/A182V/D101N/D185E/E176A/E190D/L180R/Q94H/R68K/S129P/T187R/V100A/V91M/W191G)

ARGYISTRV was tested, and the “REVEAL® score at 0 h” value (B*27:05) was 125.3.

In the case of LMCHATFTM, the “REVEAL® score at 0 h” value (A*24:02) is reported as 99.5, the “REVEAL® score at 0 h” value (A*02:01) is reported as 72.9 and the “REVEAL® score at 0 h” value (B*27:05) is reported as 98.2. The “REVEAL® score at 0 h” value (H-2Kb) was 59.0.

With GLYGNGVVT the “REVEAL® score at 0 h” value (A*02:01) was 87.7.

With LSRNSTHEM the “REVEAL® score at 0 h” value (H-2Kb) was 51.1 and the “REVEAL® score at 0 h” value (B*07:02) was 124.5.

VYNMMGKRE was tested, and the “REVEAL® score at 0 h” value (A*11:01) was 62.5.

For YFHRRDLRL, the “REVEAL® score at 0 h” value (A*24:02) was 87.5.

With MCHATFTMR the “REVEAL® score at 0 h” value (A*03:01) was 86.8 and the “REVEAL® score at 0 h” value (A*11:01) was 91.0.

In the case of AMTDTTPFG, the “REVEAL® score at 0 h” value (A*02:01) is reported as 91.9.

With VVAAEMEEA the “REVEAL® score at 0 h” value (A*02:01) was 92.2.

In the case of GTYGLNTFT, the “REVEAL® score at 0 h” value (A*11:01) is reported as 63.6.

With MWHVTRGAV the “REVEAL® score at 0 h” value (A*02:01) was 62.7.

With YNMMGKREK the “REVEAL® score at 0 h” value (A*11:01) was 80.9.

In the case of HWTEAKMLL, the “REVEAL® score at 0 h” value (A*24:02) is reported as 103.2.

LGCGRGGWS was tested, and the “REVEAL® score at 0 h” value (A*24:02) was 74.8.

In the case of FKLTYQNKV, the “REVEAL® score at 0 h” value (B*27:05) is reported as 53.7.

CVYNMMGKR was tested, and the “REVEAL® score at 0 h” value (A*03:01) was 81.6 and the “REVEAL® score at 0 h” value (A*11:01) was 113.2.

In the case of AISGDDCVV, the “REVEAL® score at 0 h” value (A*02:01) is reported as 91.1.

For TPFGQQRVF, the “REVEAL® score at 0 h” value (B*07:02) was 112.7.

MAMTDTTPF was tested, and the “REVEAL® score at 0 h” value (A*24:02) was 51.3 and the “REVEAL® score at 0 h” value (B*07:02) was 117.4.

In the case of GEAAAIFMT, the “REVEAL® score at 0 h” value (A*24:02) is reported as 58.9, the “REVEAL® score at 0 h” value (A*02:01) is reported as 74.3 and the “REVEAL® score at 0 h” value (A*11:01) is reported as 50.3.

GQQRVFKEK was tested, and the “REVEAL® score at 0 h” value (A*02:01) was 47.1, the “REVEAL® score at 0 h” value (B*27:05) was 95.4 and the “REVEAL® score at 0 h” value (A*03:01) was 59.6. The “REVEAL® score at 0 h” value (A*11:01) was 85.5.

In the case of IPERSWNSG, the “REVEAL® score at 0 h” value (B*07:02) is reported as 45.2.

MGEAAAIFM was tested, and the “REVEAL® score at 0 h” value (A*02:01) was 50.6.

For YGLNTFTNM, the “REVEAL® score at 0 h” value (H-2Kb) was 75.4.

TVWFVPSIK was tested, and the “REVEAL® score at 0 h” value (A*11:01) was 92.2.

For VGTYGLNTF, the “REVEAL® score at 0 h” value (A*24:02) was 96.0.

For QQRVFKEKV, the “REVEAL® score at 0 h” value (H-2Kb) was 63.4.

For TTDISEMGA, the “REVEAL® score at 0 h” value (A*01:01) was 68.4.

NMMGKREKK was tested, and the “REVEAL® score at 0 h” value (A*11:01) was 77.9.

For HATFTMRLL, the “REVEAL® score at 0 h” value (H-2Kb) was 69.5.

With LLCDIGESS the “REVEAL® score at 0 h” value (A*02:01) was 93.9.

FKPGTSGSP was tested, and the “REVEAL® score at 0 h” value (H-2Kb) was 45.7 and the “REVEAL® score at 0 h” value (B*07:02) was 50.4.

In the case of RQWFFDLPL, the “REVEAL® Score” value (A*02:01) is reported as 80.5.

KLTYQNKVV was tested, and the “REVEAL® score at 0 h” value (A*02:01) was 92.3.

In the case of TMWHVTRGA, the “REVEAL® score at 0 h” value (A*02:01) is reported as 112.0.

PLSRNSTHE was tested, and the “REVEAL® score at 0 h” value (B*07:02) was 65.0.

With ISGDDCVVK the “REVEAL® score at 0 h” value (A*11:01) was 88.7.

For SRNSTHEMY, the “REVEAL® score at 0 h” value (B*07:02) was 52.0.

For ATFTMRLLS, the “REVEAL® score at 0 h” value (A*11:01) was 58.5 and the “REVEAL® score at 0 h” value (H-2Kb) was 55.6.

In the case of IVDLMCHAT, the “REVEAL® score at 0 h” value (A*02:01) is reported as 62.7.

In the case of RRGDLPVWL, the “REVEAL® score at 0 h” value (B*27:05) is reported as 144.8.

For HTMWHVTRG, the “REVEAL® score at 0 h” value (A*11:01) was 56.3.

With TLLCDIGES the “REVEAL® score at 0 h” value (A*02:01) was 63.9.

With LMYFHRRDL the “REVEAL® score at 0 h” value (A*02:01) was 97.8, the “REVEAL® score at 0 h” value (H-2Kb) was 54.9 and the “REVEAL® score at 0 h” value (B*07:02) was 119.6.

In the case of KQWFLDLPL, the “REVEAL® Score” value (A*02:01) is reported as 86.0.

In the case of CHATFTMRL, the “REVEAL® score at 0 h” value (A*24:02) is reported as 75.9 and the “REVEAL® score at 0 h” value (H-2Kb) is reported as 60.3.

With PERVILAGP the “REVEAL® score at 0 h” value (B*07:02) was 56.1.

WTEAKMLLD was tested, and the “REVEAL® score at 0 h” value (A*24:02) was 94.7.

LMRRGDLPV was tested, and the “REVEAL® score at 0 h” value (A*02:01) was 82.3 and the “REVEAL® score at 0 h” value (B*07:02) was 178.9.

LAPTRVVAA was tested, and the “REVEAL® score at 0 h” value (H-2Kb) was 102.5.
